Drawing on patent US20220119784, this text covers activity for one substance.

The test system of data set [1] is PDCD-1 megaTAL parent (Artificial Sequence). As to the kind of experiment: cell_activity. The settings on record: primary human T cells, mRNA electroporation, TIDE.
Data set [2] relates to PDCD-1 megaTAL thermostable variant (Artificial Sequence). As to the kind of experiment: cell_activity. The settings on record: nearly 80%; primary human T cells, mRNA electroporation, TIDE.

For PDCD-1 target site, the activity in data set [1] was under 20 % editing; in data set [2], 80 % editing.
